The target of the experiment is T1, cav(1-104), truncated caveolin-1 with intramembrane and C-terminal domains deleted (human, UniProt Q03135 1-104).
T1 sequence (looked up): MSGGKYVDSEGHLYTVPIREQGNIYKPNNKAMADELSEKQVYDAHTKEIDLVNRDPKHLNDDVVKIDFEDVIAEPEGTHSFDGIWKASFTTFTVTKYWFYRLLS
Nature of the experiment: ITC.

For YTSLIHSLIEESQNQQEKHEKEIIDIERWASMLQLF (designed binder) [caveolin ligand 5 fused to MBP], the “dH1 (first binding site)” value is -26.1 kcal/mol and the “dH2 (second binding site)” value amounted to 83.9 kcal/mol.
For YTSLIHSLIEESQNQQEKQEKELMELERWGSMLKCF (designed binder) [caveolin ligand 4 fused to MBP] the same measures were -20.6 kcal/mol and 44.8 kcal/mol.
